In patent US20200017592A1 (Regeneron, published 2020):

T1: full-length human IL-36R on cells (human, UniProt Q9HB29 20-575)
T1 sequence (looked up): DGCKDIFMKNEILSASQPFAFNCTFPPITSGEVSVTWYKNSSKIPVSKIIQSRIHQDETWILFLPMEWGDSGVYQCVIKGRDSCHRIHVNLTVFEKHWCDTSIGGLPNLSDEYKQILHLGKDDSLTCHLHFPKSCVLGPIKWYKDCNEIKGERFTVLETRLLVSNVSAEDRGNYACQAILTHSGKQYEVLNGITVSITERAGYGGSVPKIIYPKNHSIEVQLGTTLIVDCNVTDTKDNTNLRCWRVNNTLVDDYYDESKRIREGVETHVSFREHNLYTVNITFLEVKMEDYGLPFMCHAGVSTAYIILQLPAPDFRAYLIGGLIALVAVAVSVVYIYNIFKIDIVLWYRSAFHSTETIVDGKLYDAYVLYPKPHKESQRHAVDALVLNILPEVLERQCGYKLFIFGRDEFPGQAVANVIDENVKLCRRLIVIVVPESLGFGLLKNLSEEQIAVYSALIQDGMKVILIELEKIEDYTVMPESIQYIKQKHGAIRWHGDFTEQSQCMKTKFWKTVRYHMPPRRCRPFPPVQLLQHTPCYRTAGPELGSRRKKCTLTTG

T2: Macaca fascicularis IL-36R on cells (Macaca fascicularis, UniProt A0A2K5WSK9 20-558)
T2 sequence: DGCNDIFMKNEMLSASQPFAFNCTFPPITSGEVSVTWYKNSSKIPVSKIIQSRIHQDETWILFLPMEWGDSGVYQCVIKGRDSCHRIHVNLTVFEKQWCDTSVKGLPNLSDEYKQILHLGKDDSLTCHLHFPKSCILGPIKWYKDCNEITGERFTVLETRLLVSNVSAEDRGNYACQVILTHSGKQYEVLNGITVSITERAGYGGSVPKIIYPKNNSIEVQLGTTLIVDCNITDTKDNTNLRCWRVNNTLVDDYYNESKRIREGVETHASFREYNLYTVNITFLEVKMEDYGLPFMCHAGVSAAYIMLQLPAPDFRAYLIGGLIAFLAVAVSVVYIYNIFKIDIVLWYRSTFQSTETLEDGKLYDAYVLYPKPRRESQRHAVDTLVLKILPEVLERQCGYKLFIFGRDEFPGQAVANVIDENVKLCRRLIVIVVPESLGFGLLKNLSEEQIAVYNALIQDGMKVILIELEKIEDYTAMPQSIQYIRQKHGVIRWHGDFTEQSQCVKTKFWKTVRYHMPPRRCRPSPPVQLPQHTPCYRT

B1: H4H14732P2 (antibody, human IgG4 S228P, kappa, V domains shown)
VH: EVQLVESGGGLVQPGRSLRLSCAASGFTFDDYAMHWVRQAPGKGLEWVSGINWAGYNIDYADSVKGRFTISRDNAKNSLYLQMNSLRAEDTALYYCAKDMRGFSYGFPFDYWGQGTLVTVSS
VL: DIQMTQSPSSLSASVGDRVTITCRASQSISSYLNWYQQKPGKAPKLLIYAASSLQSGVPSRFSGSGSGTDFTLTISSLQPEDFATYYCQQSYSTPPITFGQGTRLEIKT
B2: H4H14757P (antibody, human IgG4 S228P, kappa, V domains shown)
VH: EVQLVESGGGLVQPGRSLRLSCTASGFTFDDYAMHWVRQAPGKGLEWVSGIRWNGGSIGYVDSVKGRFTISRDNAKKSLHLQMNSLKTEDTALYYCAKDIGDILTGFYGEYGMDVWGQGTTVTVSS
VL: DIQMTQSPSSLSASEGDRVTITCRASQSISSYLNWYQQKAGKAPNLLIYAASSLQSGVPSRFSGSGSGTEYTLTISSLQPEDFATYYCQQSYIIPYTFGQGTKLEIKR
B3: H4H14760P2 (antibody, human IgG4 S228P, kappa, V domains shown)
VH: QVQLVESGGGVVQPGKSLRLSCAASGFTFSNYGIHWVRQAPGKGLEWVAIILYDGSNQHYADSVKGRFTISRDNSKNTLYLQMNNLRAEDTAVYYCARDLDLWSGYYTNGDGMDVWGQGTTVTVSS
VL: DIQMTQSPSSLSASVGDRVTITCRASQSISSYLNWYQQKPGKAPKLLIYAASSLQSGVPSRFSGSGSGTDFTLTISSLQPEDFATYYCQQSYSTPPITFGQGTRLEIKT

How the values were obtained:
[1] = target: T1, full-length human IL-36R on cells; assay: cell-based or functional assay
[2] = target: T2, Macaca fascicularis IL-36R on cells; assay: cell-based or functional assay
[3] = target: T3, recombinant human IL-36R extracellular domain expressed with a C-terminal myc-myc-hexahistidine tag (human, UniProt Q9HB29 20-337); assay: SPR (Biacore 4000), mAb captured on anti-human Fc, 25°C
T3 construct: also called hIL-36R-MMH; hIL-36R.mmH
Method: (§1) Equilibrium dissociation constants (KD values) for IL-36R binding to purified anti-IL-36R antibodies were determined using a real-time surface plasmon resonance biosensor using a Biacore 4000 instrument. The Biacore sensor surface was first derivatized by amine coupling with a monoclonal mouse anti-human Fc antibody (GE, # BR-1008-39) to capture anti-IL-36R monoclonal antibodies. All binding studies were performed in 0.01 M Hepes pH 7.4, 0.15 M NaCl, 3 mM EDTA, and 0.05% v/v Surfactant Tween-20 (HBS-ET running buffer) at 25° C. and 37° C. Different concentrations of IL-36R reagents, human IL-36R extracellular domain expressed with a C-terminal myc-myc-hexahistidine tag (hIL-36R-MMH), Macaca fascicularis IL-36R extracellular domain expressed with a C-terminal myc-myc-hexahistidine tag (mfIL-36R-MMH: mROR1 signal sequence (M1-A29). Macaca fascicularis IL36R_ecto domain (D20-A336).mycmycHis6), human IL-36R extracellular domain expressed with a C-terminal mouse IgG2a Fc tag (hIL-36R-mFc: mROR1 signal sequence (M1-A29)-human IL36R (D20-Y337)-mouse IgG2aFc (E98-K330)) or an in-line fusion protein of human IL-36R extracellular domain and IL1RAcP extracellular domain expressed with mouse IgG2a Fc tag (hIL-36R-Trap-mFc: mROR1 signal sequence (M1-A29)-human IL36R ecto domain (D20-Y337)-human IL1RacP ecto domain(S21-E359)-mouse IgG2aFc) in HBS-ET running buffer (ranging from 100 nM to 3.7 nM, 3-fold dilutions) were injected over the anti-IL-36R antibody captured surface for 4 minutes at a flow rate of 30 μL/minute and their dissociation in HBS-ET running buffer was monitored for 10 minutes. Kinetic association rate constant (kₐ) and dissociation rate constant (kd) were determined by fitting the real-time sensorgrams to a 1:1 binding model using Scrubber 2.0c curve fitting software. Binding dissociation equilibrium constants (KD) and dissociative half-lives (t_{1/2}) were calculated from the kinetic rate constants as: […]

[4] = target: T3, recombinant human IL-36R extracellular …; assay: SPR (Biacore 4000), mAb captured on anti-human Fc, 37°C
Method: as §1

Binder	IC50 [M], NFκB-luciferase, 10 pM hIL-36γ [1] [M]	IC50 [M], NFκB-luciferase, 20 pM hIL-36α [1] [M]	Max Inhibition (%), NFκB-luciferase, 10 pM hIL-36γ [1] [%]	Max Inhibition (%), NFκB-luciferase, 20 pM hIL-36α [1] [%]	IC50 [M], NFκB-luciferase, 300 pM hIL-36γ [2] [M]	IC50 [M], NFκB-luciferase, 500 pM hIL-36α [2] [M]	IC50 [M], NFκB-luciferase, 600 pM hIL-36β [2] [M]	Max Inhibition (%), NFκB-luciferase, 300 pM hIL-36γ [2] [%]	Max Inhibition (%), NFκB-luciferase, 500 pM hIL-36α [2] [%]	Max Inhibition (%), NFκB-luciferase, 600 pM hIL-36β [2] [%]	100 nM hIL-36R-MMH Bound (RU) [3] [RU]	Kd [3] [nM]	koff [3] [s⁻¹]	kon [3] [M⁻¹ s⁻¹]	t½ [3] [min]	100 nM hIL-36R-MMH Bound (RU) [4] [RU]	Kd [4] [nM]	koff [4] [s⁻¹]	kon [4] [M⁻¹ s⁻¹]	t½ [4] [min]	also measured
B1	> 1e-08	> 1e-08	69	61	> 1e-07	> 1e-07	> 1e-07	36	47	43	26	13.9	0.000569	41000	20	34	27.6	0.00116	42100	10	IC50 [M], NFκB-luciferase, 15 pM hIL-36β [1]: > 1e-08 M; Max Inhibition (%), NFκB-luciferase, 15 pM hIL-36β [1]: 69%
B2	1.3e-10	1.8e-10	87	101	> 1e-07	> 1e-07	> 1e-07	25	29	36	94	2.18	0.000396	182000	29	129	5.18	0.00109	210000	11	
B3	7e-10	4.9e-10	49	99	> 1e-07		> 1e-07	43		48	61	6.11	0.000415	67900	28	83	23	0.00208	90600	6	
